# Results published in the DeepSol protein solubility set.
# Assay: soluble on expression in E. coli; label from the status in PepcDB or PDB records
row,Sequence,soluble on expression in E. coli
1,MNAVHFGAGNIGRGFIGEILAKNGFHITFVDVNETIIQALKERKSYTIELADASHQQINVENVTGLNNMTEPEKVVEAIAEADLVTTAIGPNILPRIAELIAQGIDARAEANCQKPLDIIACENMIGGSTFLAEEVAKYLKNPAYAEQWIGFPDAAVDRIVPLQKHEDPLFVQVEPFCEWVIDDTNRKAKEIQLEGVHYVAD,not soluble
2,MNDDLIMRKKPEQIEMEFQDSGESALVKSTLLSSLQNSEWEIAVRKEVKKFLEKARDDVSAKEVFDAVKDMARREIPQEAKKKLYDQVLEFVTTTNKK,not soluble
3,MNDELKNKSGKVKVMYVRSDDDSDKRTHNPRTGKGGGRPAKSRTDGGRRPARDERNNQSRDRKHETSPWRTVSRAPGDETPEKVDHGGISGKSFIDPEVLRRQRAEETRVYGENACQALFQSRPDAIVRAWFIQSVTPRFKEALRWMAANRKAYHVVDEAELAKASGTEHHGGVCFLIKKRNGTTVKQWVKQAADQDCVLALEDVANPHNLGGMMRSCAHFGVKGVVVQDAALLESGAAIRTAEGGAEHVQPITGESIVDVLDDFRQAGYTVVTTSSDRGQALFSTTLPEKMVLVLGREYDYLPEAAREPDDLCVKINGTGNVESLNVSVATGVLLAEWWRQNKA,not soluble
4,MNDIWWQTYGEGNCHLVLLHGWGLNAEVWHCIREELGSHFTLHLVDLPGYGRSSGFGAMTLEEMTAQVAKNAPDQAIWLGWSLGGLVASQMALTHPERVQALVTVASSPCFSAREGWPGIKPEILGGFQQQLSDDFQRTVERFLALQTLGTETARQDARTLKSVVLAQPMPDVEVLNGGLEILKTVDLREALKNVNMPFLRLYGYLDGLVPRKIVPLLDTLWPHSTSQIMAKAAHAPFISHPAAFCQALMTLKSSL,not soluble
5,MNDKEKIYNQLHHDAPIQIMPAPENLFVEYIEDGEVWYSPVVCIALSKAHNINFYDSDDVGCIDKAATCSIKKFNPETGEFEQFSKMAQKEITQ,not soluble
6,MNDRLCFEVHDNKGYFVFPDTWFGPLLGEFEEVLDAYDADEISETSYINKLRRLAQREPDFIDIHAHLAYAFLEQNAPRKALNAALKGLAAGNRIIPESFCGEIIWMHPENRPYLRALYAAILANVHLQRHQDAVMLTDKILAYNPEDNQGARWLLGSELLRTGDHERAFSVLKEHADEFSPYWYELGLLHFLNGEHVKAATAFRHGFATNTYIAEMLCGNLHPFPLAVWHDFSGSLDTAEDYYATYSPLWGQYPEALLFVNWLYNHSSVLHERSEIIKCAEMLIQEDDFEICESILRQQEHLWKRIDKTLSEEIVQKCRNMNGEYIWPWILPFSAAGMKHSSIQYQMAGDPLEHHHHHH,soluble
7,MNDSTCPRPCLMKLDLQSSTNKLAFLKDNWPSFGQIESIDRLSETELRCTLCLLDVVLAALAKDECFCPNREIIRLVLTRTYVQNRCELCETEEIRSKLMKGFCTWEKKNGLSRKNEIRRRGISVFYGAILRMLSKVNGKQE,not soluble
8,MNFLSQRYTGKSLHPDETKCYKNFTQTAQKLTHRLAESINHYVNHIDCVINTNLYNRLLAEKKESNHMIYKERETWLEAILNTLPDHVFILDESGRYIESFGGTHHSKTFNAERYIGLQLSDVLSPTKADELMGFIFDVMQDNETKVVKYNLSLHDHLLLPIEELEALENPEEMWFEAIIKPVNAPENANKLVIWSVRDITKTHLLEQRLK,not soluble
9,MNFRLSEEHEMLRKMVREFAENEVAPTAAERDEEERFDRGIFNKMAELGLTGIPWPEEYGGIGSDYLAYVIAVEELSRVCASTGVTLSAHISLASWPIYKFGNEEQKQKYLRALATGEKLGAYALSEPGAGSDVASMKTRAVKDGDHYILNGSKVWITNGGEAEIYVVFAVTDPEKRHKGISAFIVEKGTPGFSFGKKEKKLGIRSSPTTELIFEDCRIPKENLLGQEGEGFKIAMMTLDGGRNGIAAQAVGIAQGALDAAVDYAKQRVQFGKPIIEQQGVAFKLADMATAIEAARLLTYQAAWLESNGLPYGKASAMAKLFAGDTAMKVTVEAVQIFGGNGYTKDYPVERFMRDAKITQIYEGTQEIQRLVISRMLTRN,soluble
10,MNGIKTGLGITPGEHIISADSALSRNIRQCFCLSCHGRLILQTDAQGAWFEHDLYALSEQQKAACVVLNPEKSHPYIEDMEMFLSPLPVVLEWHCMMCEQFFHGKKFCEACGTGIYCRAVCTKSVYSYQPDLFQDCGGAST,soluble
11,MNGNGENGTDEKQKLLSVVGVVSEEVVEMNRVSSARFQVSKTDEDEKTSDDNLRKLKSGSEPPPPTQNHEAVTLVTRKMSATGRFMVTSDTNPGQLVAEVADELGIDVPIDPPAEKSPASRAKGVHFSVGDKDSGSMSEDGDEKRNITHENQTTFNMKSWRNMKTIEHPPIIDFYRNSIDTDGVFNRPSMAQLIHGKEHKEQDLGFEELNKKPETAQLAKVIGLNLLSKEDQERRDFERKKRINQQKLQEMHKMHKETYNFR,not soluble
12,MNGYVYLVGAGPGDEGLITKKAIECLKRADIVLYDRLLNPFFLSYTKQTCELMYCGKMPKNHIMRQEMINAHLLQFAQEGKIVVRLKGGDPSIFGRVGEEAETLAAANIPYEIVPGITSSTAASSYAGIPLTHRNYSNSVTLLTGHAKGSLTDHGKYNSSHNSDTIAYYMGIKNLPTICKNLRQAGKKEDTPVAVIEWGTTGKQRVVTGTLSTIVSIVKNENISNPSMTIVGDVVSLRDQIAWKEHKPLHGKKVLFTSATNKTSVMKQKLQEAGAEIYQIPTFKKEEYTLTLEQIIEIFNVNRLVFCSAESVEILMQSCSKYKKDIRSLQAELQHMNVATQEKLMQYGLLSKEAKFSSDTTVYLGRNINRIAFIQEKIGAGSYMMTHKYTIDHRFDEVHSRMLSEFLWDSIVFEGRASIDTFLAEVKRLGFLDIVTLPFSYTDVPTLRYANKVGFHNIDHQLQETLMQKDMVRQ,not soluble
13,MNHAQSLYPLIERALLCPVLEDKLALAERLHRDWRAGMLARLASPAPYPLPEPGRPERPELVHPARVPKRSLSTRRGHGALLHAIAHIEFNAVNLALDAAWRFRDMPDEFVDDWLKVAAEEAGHFRLLQGRLAELGFSYGDFPAHDGLWAMCRKTDRDAMVRMALVPRVLEARGLDVTPGIQRRLAGIGDHASVAVLDVILRDEVGHVLIGNRWFVRLCRERGLEPQATFRGLLEQHAMQLHPGDYNLDARAAAGFFADELEALARLTESVSDGRLEHHHHHH,soluble
14,MNIAVASGKGGTGKTTVAVNLAASYAMQGLPVTLVDCDVEEPNAHLFVDARWQVRSLCGVPVPAIDPDRCLGESCRRCVEACRFKALAMLGGELLVFAELCHGCGLCELVCPAGVVGTASRPVGEVRQGVASCHVHGETCHMAFRDGVLRVGEAMATPLIKAVKRTAEDANATSHAGYGVTLWDCPPGTACATINALDEADFVVLVAESTAFGLHDLRLAVGLVCHLGLPHGIVINRFGMGDDRVATWAASEGIDVLGRLPFSLEAASRNAGGGLLLDASHDLEAAYRDLGARLLEKGIRSLEHHHHHH,not soluble
15,MNIFNPNHDRKAIVIFSGGQDSTTCLFQAIAEYGKENIEAITFQYGQRHAIELEKARTIAQDLGIKQTLIDTSVMKAITHNALMDEQAHIEQKENELPNTFVDGRNALFLLYAAIYAKGQGIQDIITGVCETDFSGYPDCRDVFIKSMNVTLNLAMDYPIPISKTPLMYLTKAQTWQLADEFRRIRLCTKTYSHLL,not soluble
16,MNILLAGGSGLIGQELVRGMGEEHHYTVLGRDKDAIQKIFTTKASSLSWDELNTQDASRFDAVINLCGVNIAISRWTPKIKEEIISSRVQTTENLLHWILQQNAKPRFYCANAVGIYGLQENGDATDLTEDTAINWEHPKDYLSEVGIRWQQALQKAEEAGLPVTSTRFGVVLKKGKGFLGKLYPSFICGLGSTIGDGRQYLSWIDSEDLVNAYRFLLNHPEITGPVNVTSPNPCMQREFAKAFAKSLHRPLLLWTPAFIIHLLFGEMGDCLINHGQKVKPKRLLEAGFEFKWPDIEKALKHQYSAILEHHHHHH,soluble
17,MNILLTSATGYLGRAIAAAIQSKGHRVTALARSAATAQRLEAAGIQPCRGDLTDAVALQQAAAQADAVIHTAATNDAAMGLVDRQAVKTLLAAIAGTQKPFLYTSGLWVMGNTGATVADETFPLNPPALVAWRPAVEALVLSAADQGVRSIVIRPALVYGRGGGLLPMLMQAGQSQGAVPVIGAGDNAWSFIHIDDLAALYVAAIEQAPARTLLIGASGESVSMQQVALTIAKTLGLGDRLQHLTLEEARAIWGDLADALTLDQRVSGDRARQLLHWQPVAPGVFQELTQGSYATKAIAALEHHHHHH,not soluble
18,MNILRNIILFGWMAIACTAFAQDRNADKVERPNTKKINFGIKAGFNSSMFMVSELKIKDVTIDEVQNNYKIGYFGAIFMRFNIKKHFIQPEASYNVSKGEITFDKLGSQHPAIEPDYASVQSVLHSIDFPILYGYNVVKKGPYGMSIFAGPKLRYLWGKQNEITFTNFDQKGIHEKLYPLNVSVVIGVGVNISRIFFDFRYEQGIGNISKSIVYDNINSDGSTGVSPIIFRRRDSALSFSFGFIL,not soluble
19,MNIQCKRVYDPAEQSDGYRILVDRLWPRGIKKTDLALDEWDKEITPSTELRKAFHGEVVDYATFREQYLAELAQHEQEGKRLADIAKKQPLTLLYSAKNTTQNHALVLADWLRSL,soluble
20,MNITATSLDSEDELSIKYMDAVDNINILKRYGCDIQHEVDVHTMSFDNSLSLQRYDRIVFNFPHAGSRFFGRELSSRAIESHKELVRGFLENAKEMLEEDGEIHITHKTTYPFSDWGIKKLGKGEGLKLLKKSKFELSHYPGYITKRGSGGRRSDDYFPVDVDPCDLKGFEVLEIYHPSMSDGFVNSVMVARKLTDRLIKYEWCTGTRSLNSLKKTRQTEPDQFNKREINRSGPGQVAEEEEEVVAVMMMMTSLGGGAGGGGGGGGSGGGRFVTYPPPLSVPPSAPQSPNFSGGLRSQPSFLVEQEKYLSELLAERHKLTPFLPVLPHVCRLMNQEILRVTTLLENALSQSRFDHPSPLASGGIFQNSRADMNGWASQFPSERSVSSSPAPNWLNSPGSSSGLIVKRTIRVDIPVDKYPNYNFVGRLLGPRGNSLKRVEASTDCRVLIRGRGSIKDPIKEDMMRGKPGYEHLNEPLHILVEAELPIEIVDARLMQAREILDDLLTPVEETHDFYKKQQLRELALLNGSLREEGSPMSGSISPYNSLGMKRAKTRG,soluble
21,MNITIVLGDKIPSIKYGGTQRVMWYLGKELNKRGHKVTFIAGKGSSCPFAKVIELDPSVNLNTQIPTDADIVHFNIPVPEGITKPHLLTIHGNGIPANADRNIVFVSRNHAQRLGSESFVYNGLDWDDYGPANLTLSRKNYHFLGKAAWKVKNIKGAIAVVQSIKNAQLDVLGGYRLNLKMGFRFTWNPRIHFHGMVDDSKKKVIIEQSKGLIFPVTWHEPFGLAITESLYFGAPVFGTPYGALPELVSPEVGFLTAHGQEMAEHIQSAQYSPKVCHEYARDLFNSSVMAEAYLKKYETVLNGEPLNKEVPHIIDIARRLPWD,not soluble
22,MNIVCIDTCFSSVAITAQGNAGTFTSVFTPAKARHSAILIPAIETAVKQAGFSINETDVLVCPQGPGGFTGLRLAYSTAKAIQLQTNARFFCVSILEALCSKYGDKNQFLSVIDAKRDCFYVQAFENKKPISEAFDIRAEDALKLIDKNKKTIICGFGTEKFNEEAGASIESNNITLIEADKETLSKTLLDCFLTNKNCKKVEDHEGPVYIRKSDAEY,not soluble
